From IntAct's records for PubMed 33986552

Each substance was assayed against GMPPA, Q96IJ6-1.
Sequence of GMPPA, Q96IJ6-1 (Q96IJ6 whole entry): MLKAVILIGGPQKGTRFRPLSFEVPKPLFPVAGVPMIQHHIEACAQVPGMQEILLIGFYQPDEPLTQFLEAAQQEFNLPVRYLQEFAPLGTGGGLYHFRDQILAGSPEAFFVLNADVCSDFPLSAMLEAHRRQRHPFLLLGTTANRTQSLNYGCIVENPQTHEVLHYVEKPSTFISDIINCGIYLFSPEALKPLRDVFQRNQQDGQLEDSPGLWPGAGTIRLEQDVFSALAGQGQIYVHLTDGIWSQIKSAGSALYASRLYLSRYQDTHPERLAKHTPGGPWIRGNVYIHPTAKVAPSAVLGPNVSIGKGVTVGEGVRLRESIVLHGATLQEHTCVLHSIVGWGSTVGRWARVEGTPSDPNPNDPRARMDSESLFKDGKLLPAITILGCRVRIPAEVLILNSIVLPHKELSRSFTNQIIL

Sequence of Mannose-1-phosphate guanylyltransferase catalytic subunit beta (Homo sapiens), Q9Y5P6-1 R293W (Q9Y5P6 whole entry R293W): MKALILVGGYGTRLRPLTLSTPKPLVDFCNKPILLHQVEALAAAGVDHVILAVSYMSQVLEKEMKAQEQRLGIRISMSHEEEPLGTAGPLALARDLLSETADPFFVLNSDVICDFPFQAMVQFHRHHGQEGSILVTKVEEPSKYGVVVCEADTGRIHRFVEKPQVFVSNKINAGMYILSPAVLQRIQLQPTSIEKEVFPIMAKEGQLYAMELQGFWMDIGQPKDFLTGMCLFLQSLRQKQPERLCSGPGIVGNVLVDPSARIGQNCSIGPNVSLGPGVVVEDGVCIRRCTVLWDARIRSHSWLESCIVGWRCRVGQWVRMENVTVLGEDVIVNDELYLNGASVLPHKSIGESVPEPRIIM
Sequence of Mannose-1-phosphate guanylyltransferase catalytic subunit beta (Homo sapiens), Q9Y5P6-1 C266Y (Q9Y5P6 whole entry C266Y): as the sequence (Q9Y5P6 whole entry R293W) above, with C266Y, W293R counted along it
Sequence of Mannose-1-phosphate guanylyltransferase catalytic subunit beta (Homo sapiens), Q9Y5P6-1 D334N (Q9Y5P6 whole entry D334N): as the sequence (Q9Y5P6 whole entry R293W) above, with W293R, D334N counted along it
Sequence of Mannose-1-phosphate guanylyltransferase catalytic subunit beta (Homo sapiens), Q9Y5P6-1 L303F (Q9Y5P6 whole entry L303F): as the sequence (Q9Y5P6 whole entry R293W) above, with W293R, L303F counted along it
Sequence of Mannose-1-phosphate guanylyltransferase catalytic subunit beta (Homo sapiens), Q9Y5P6-1 R357H (Q9Y5P6 whole entry R357H): as the sequence (Q9Y5P6 whole entry R293W) above, with W293R, R357H counted along it

effect of a mutation on the interaction	Substance
with no effect	Mannose-1-phosphate guanylyltransferase catalytic subunit beta (Homo sapiens), Q9Y5P6-1 D334N
with no effect	Mannose-1-phosphate guanylyltransferase catalytic subunit beta (Homo sapiens), Q9Y5P6-1 L303F
with no effect	Mannose-1-phosphate guanylyltransferase catalytic subunit beta (Homo sapiens), Q9Y5P6-1 R293W

The next lines start with the substance.

Substance	effect of a mutation on the interaction
Mannose-1-phosphate guanylyltransferase catalytic subunit beta (Homo sapiens), Q9Y5P6-1 C266Y	with no effect
Mannose-1-phosphate guanylyltransferase catalytic subunit beta (Homo sapiens), Q9Y5P6-1 R357H	decreasing interaction strength
